Measured values published in US20220380430A1 (WORCESTER POLYTECHNIC INSTITUTE, published 2022).
No end group written: not given here.

The binders below were run against NPR-10B (C. elegans) (assay: cell-based or functional assay).

| EC50 of receptor activation (aequorin calcium luminescence, transfected CHO-K1/Galpha16 cells) | Binder |
| --- | --- |
| 439 nM | SAEPFGTMRF-NH2 [FLP-3-7 (SAEPFGTMRFamide)] |
| 867 nM | EAEEPLGTMRF-NH2 [FLP-3-3 (EAEEPLGTMRFamide)] |
| 366 nM | TPLGTMRF-NH2 [FLP-3-2 (TPLGTMRFamide)] |
| 1100 nM | ASEDALFGTMRF-NH2 [FLP-3-5 (ASEDALFGTMRFamide)] |
| 427 nM | NPLGTMRF-NH2 [FLP-3-4 (NPLGTMRFamide)] |
| 262 nM | SPLGTMRF-NH2 [FLP-3-1 (SPLGTMRFamide)] |
| 760 nM | NPENDTPFGTMRF-NH2 [FLP-3-9 (NPENDTPFGTMRFamide)] |

These binders were tested against FRPR-16 (C. elegans) (assay: cell-based or functional assay).

| EC50 of receptor activation (aequorin calcium luminescence, transfected CHO-K1/Galpha16 cells) | Binder |
| --- | --- |
| 39.5 nM | SAEPFGTMRF-NH2 [FLP-3-7 (SAEPFGTMRFamide)] |
| 288 nM | EAEEPLGTMRF-NH2 [FLP-3-3 (EAEEPLGTMRFamide)] |
| 31.7 nM | TPLGTMRF-NH2 [FLP-3-2 (TPLGTMRFamide)] |
| 72.1 nM | ASEDALFGTMRF-NH2 [FLP-3-5 (ASEDALFGTMRFamide)] |
| 10.7 nM | NPLGTMRF-NH2 [FLP-3-4 (NPLGTMRFamide)] |
| 1600 nM | SADDSAPFGTMRF-NH2 [FLP-3-8 (SADDSAPFGTMRFamide)] |
| 7.4 nM | SPLGTMRF-NH2 [FLP-3-1 (SPLGTMRFamide)] |
| 88.3 nM | NPENDTPFGTMRF-NH2 [FLP-3-9 (NPENDTPFGTMRFamide)] |
